The text below walks through data of US20070054353A1 (published 2007).

Numbering of substitutions follows the chain as printed.

The chains are these.
T1: GST-TIF2.1 (UniProt Q15596 624-1287)
T1 construct: also called GST fused to TIF2.1; not shown: glutathione S-transferase (GST) tag of vector pGEX2T
T1 sequence (looked up): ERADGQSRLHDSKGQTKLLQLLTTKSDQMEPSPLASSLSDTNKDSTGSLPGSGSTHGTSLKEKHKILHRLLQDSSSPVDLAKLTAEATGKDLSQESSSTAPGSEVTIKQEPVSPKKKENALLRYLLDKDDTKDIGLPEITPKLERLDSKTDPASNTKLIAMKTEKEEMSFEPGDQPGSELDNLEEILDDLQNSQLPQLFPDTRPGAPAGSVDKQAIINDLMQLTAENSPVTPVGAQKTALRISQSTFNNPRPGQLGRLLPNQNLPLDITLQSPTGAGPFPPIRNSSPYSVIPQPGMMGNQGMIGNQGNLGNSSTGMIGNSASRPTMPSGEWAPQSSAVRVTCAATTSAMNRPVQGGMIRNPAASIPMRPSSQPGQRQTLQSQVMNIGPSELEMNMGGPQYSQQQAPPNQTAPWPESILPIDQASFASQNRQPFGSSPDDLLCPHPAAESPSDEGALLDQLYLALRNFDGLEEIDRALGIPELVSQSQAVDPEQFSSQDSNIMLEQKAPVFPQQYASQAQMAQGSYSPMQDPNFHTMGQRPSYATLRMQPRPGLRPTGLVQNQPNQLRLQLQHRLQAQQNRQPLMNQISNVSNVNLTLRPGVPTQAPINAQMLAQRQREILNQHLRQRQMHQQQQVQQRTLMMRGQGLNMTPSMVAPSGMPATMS

T2: ERα-EYFP fusion protein (UniProt P03372 1-595)
T2 construct: also called EYFP-ERα; not shown: EYFP (engineered fluorescent protein) of vector pEYFP-CMV
T2 sequence (looked up): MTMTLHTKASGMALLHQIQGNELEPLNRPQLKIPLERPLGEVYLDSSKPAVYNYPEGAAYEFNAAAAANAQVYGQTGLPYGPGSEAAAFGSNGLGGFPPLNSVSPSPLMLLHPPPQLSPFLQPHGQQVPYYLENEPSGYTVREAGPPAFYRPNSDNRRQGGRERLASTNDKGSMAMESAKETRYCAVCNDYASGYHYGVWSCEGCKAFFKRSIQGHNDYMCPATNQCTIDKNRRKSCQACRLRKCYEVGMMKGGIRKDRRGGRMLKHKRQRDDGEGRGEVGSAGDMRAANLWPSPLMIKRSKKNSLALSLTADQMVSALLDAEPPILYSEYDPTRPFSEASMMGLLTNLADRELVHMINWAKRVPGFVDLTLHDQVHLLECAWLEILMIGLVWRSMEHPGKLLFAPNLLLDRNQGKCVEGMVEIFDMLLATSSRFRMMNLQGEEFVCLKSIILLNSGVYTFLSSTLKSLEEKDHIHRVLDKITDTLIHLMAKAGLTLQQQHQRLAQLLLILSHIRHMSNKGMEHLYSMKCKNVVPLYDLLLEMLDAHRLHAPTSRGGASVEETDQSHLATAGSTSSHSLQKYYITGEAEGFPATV

B1: Flag-m1+2 (Flag-tagged LCoR mutated in both CtBP binding sites) (other, not shown: small tags and cut ends)
chain: MQRMIQQFAAEYTSKNSSTQDPSQPNSTKNQSLPKASPVTTSPTAATTQNPVLSKLLMADQDSKSQSEPSEQDGKSPCAGSTSLSHSPGCSSTQGNGRPGRPSQYRPDGLRSGDGVPPRSLQDGTREGFGHSTSLKVPLARSLQISEELLSRNQLSTAASLGPSGLQNHGQHLILSREASWAKPHYEFNLSRMKFRGNGALSNISDLPFLAENSAFPKMALQAKQDGKKDVSHSSPVDLKIPQVRGMDLSWESRTGDQYSYSSLVMGSQTESALSKKLRAILPKQSRKSMLDAGPDSWGSDAEQSTPGQPYPTSDQEGDPGSKQPRKKRGRYRQYNSEILEEAISVVMSGKMSVSKAQSIYGIPHSTLEYKVKERLGTLKNPPKKKMKLMRSEGPDVSVKIELDPQGEAAQSANESKNE
notes: also called LCoR derivative (m1+2)
B2: HE15 (receptor, UniProt P03372 1-282, looked up)
chain: MTMTLHTKASGMALLHQIQGNELEPLNRPQLKIPLERPLGEVYLDSSKPAVYNYPEGAAYEFNAAAAANAQVYGQTGLPYGPGSEAAAFGSNGLGGFPPLNSVSPSPLMLLHPPPQLSPFLQPHGQQVPYYLENEPSGYTVREAGPPAFYRPNSDNRRQGGRERLASTNDKGSMAMESAKETRYCAVCNDYASGYHYGVWSCEGCKAFFKRSIQGHNDYMCPATNQCTIDKNRRKSCQACRLRKCYEVGMMKGGIRKDRRGGRMLKHKRQRDDGEGRGEVGS
notes: range 1-282; also called ERα truncated to amino acid 282 in region D
B3: ER378 (receptor, UniProt P03372 1-378, looked up)
chain: MTMTLHTKASGMALLHQIQGNELEPLNRPQLKIPLERPLGEVYLDSSKPAVYNYPEGAAYEFNAAAAANAQVYGQTGLPYGPGSEAAAFGSNGLGGFPPLNSVSPSPLMLLHPPPQLSPFLQPHGQQVPYYLENEPSGYTVREAGPPAFYRPNSDNRRQGGRERLASTNDKGSMAMESAKETRYCAVCNDYASGYHYGVWSCEGCKAFFKRSIQGHNDYMCPATNQCTIDKNRRKSCQACRLRKCYEVGMMKGGIRKDRRGGRMLKHKRQRDDGEGRGEVGSAGDMRAANLWPSPLMIKRSKKNSLALSLTADQMVSALLDAEPPILYSEYDPTRPFSEASMMGLLTNLADRELVHMINWAKRVPGFVDLTLHDQVHL
notes: In vitro translated
B4: ERα A/B domain (receptor, UniProt P03372 1-180, looked up)
chain: MTMTLHTKASGMALLHQIQGNELEPLNRPQLKIPLERPLGEVYLDSSKPAVYNYPEGAAYEFNAAAAANAQVYGQTGLPYGPGSEAAAFGSNGLGGFPPLNSVSPSPLMLLHPPPQLSPFLQPHGQQVPYYLENEPSGYTVREAGPPAFYRPNSDNRRQGGRERLASTNDKGSMAMESAK
notes: range 1-180; also called ERα truncated to amino acid 180
B5: LCoR-LSKAA-rluc fusion protein (other)
chain: MQRMIQQFAAEYTSKNSSTQDPSQPNSTKNQSLPKASPVTTSPTAATTQNPVLSKAAMADQDSPLDLTVRKSQSEPSEQDGVLDLSTKKSPCAGSTSLSHSPGCSSTQGNGRPGRPSQYRPDGLRSGDGVPPRSLQDGTREGFGHSTSLKVPLARSLQISEELLSRNQLSTAASLGPSGLQNHGQHLILSREASWAKPHYEFNLSRMKFRGNGALSNISDLPFLAENSAFPKMALQAKQDGKKDVSHSSPVDLKIPQVRGMDLSWESRTGDQYSYSSLVMGSQTESALSKKLRAILPKQSRKSMLDAGPDSWGSDAEQSTPGQPYPTSDQEGDPGSKQPRKKRGRYRQYNSEILEEAISVVMSGKMSVSKAQSIYGIPHSTLEYKVKERLGTLKNPPKKKMKLMRSEGPDVSVKIELDPQGEAAQSANESKNE
notes: also called rluc-LCoR-LSKAA; not shown: Renilla luciferase (rluc) of vector pRL-CMV
B6: GST-LCoR (other)
chain: B5 chain with A56L, A57L
notes: also called GST fused to LCoR; not shown: glutathione S-transferase (GST) tag of vector pGEX2TK
B7: GST-LSKAA (other)
chain: B5 chain
notes: Positions 56 and 57 are counted from the printed motif start (53); also called GST-LCoR-LSKAA; GST fused to LCoR-LSKAA; not shown: glutathione S-transferase (GST) tag of vector pGEX2TK

In experiment [1] the target is CtBP1 (C-terminal binding protein 1) (human, UniProt Q13363 1-440). Nature of the experiment: coimmunoprecipitation with anti-CtBP antibody from transfected MCF-7 cells.
Procedure: For immunoprecipitation of endogenous CtBP, CtIP, Rb, or Bmi1, MCF-7 cells in 150 mm dishes were lysed 3 min at 4° C. in 1 ml of LB (150 mM NaCl/10 mM Tris-HCl pH 7.4/0.2 mM Na orthovanadate/1 mM EDTA/1 mM EGTA/1% Triton-100X/0.5% IGEPAL CA-630/protease inhibitor cocktail; Boehringer-Mannheim, Laval, Qc). Cell debris were pelleted by centrifugation (14,000 rpm, 5 min), and proteins immunoprecipitated with 4 μg of αCtBP or αCtIP or αRb or polyclonal rabbit αBMI1 or control rabbit or goat IgG at 4° C. overnight followed by 2 hours incubation at 4° C. with protein A agarose (for αCtBP, αBmi1, control rabbit IgG) or protein A+G agarose (for αCtIP or αRb or control goat IgG). Beads were washed (3×) with LB. […] For immunoprecipitation of tagged proteins, transfected MCF-7 cells were lysed 30 min at 4° C. in 1 ml of LB, 48 h after transfection. Supernatants were cleared, incubated overnight with 4 μg of aCtBP or α-Flag M2 antibody followed by 2 hours incubation with protein-A agarose or protein A+G agarose beads respectively. Beads were washed (3×) with LB and Western blotted as above. Dilutions of specific antibodies used for Western blotting were: α-CtBP1 , α-CtBP2 (1:100), α-Flag M2-peroxidase (1:100).
The experiment “GST-LCoR” has as its target B6. Nature of the experiment: GST pull-down.
The next experiment deals with T1, GST-TIF2.1. Nature of the experiment: GST pull-down, in vitro translated ER378.
The target of a further experiment is T2, ERα-EYFP fusion protein. Nature of the experiment: BRET in living COS-7 cells. How it is done:
Cells were washed (2×) with PBS and harvested with 500 μl of PBS-5 mM EDTA. […] Readings were started immediately after coelenterazine H addition, and 10 repeated measures were taken.
BRET ratios were calculated as described in experimental procedures.
In general terms: Bioluminescence resonance energy transfer reports proximity on the nanometre scale.

For the next experiment, the target named is T3, HDAC1 (UniProt Q13547 1-482).
T3 construct: also called histone deacetylase 1
Nature of the experiment: GST pull-down, in vitro translated HDAC.

The target in a further experiment is T4, HDAC4 (UniProt P56524 1-1084, limits assumed).
T4 construct: also called histone deacetylase 4
Nature of the experiment: GST pull-down, in vitro translated HDAC.

T3 sequence (Q13547 whole entry): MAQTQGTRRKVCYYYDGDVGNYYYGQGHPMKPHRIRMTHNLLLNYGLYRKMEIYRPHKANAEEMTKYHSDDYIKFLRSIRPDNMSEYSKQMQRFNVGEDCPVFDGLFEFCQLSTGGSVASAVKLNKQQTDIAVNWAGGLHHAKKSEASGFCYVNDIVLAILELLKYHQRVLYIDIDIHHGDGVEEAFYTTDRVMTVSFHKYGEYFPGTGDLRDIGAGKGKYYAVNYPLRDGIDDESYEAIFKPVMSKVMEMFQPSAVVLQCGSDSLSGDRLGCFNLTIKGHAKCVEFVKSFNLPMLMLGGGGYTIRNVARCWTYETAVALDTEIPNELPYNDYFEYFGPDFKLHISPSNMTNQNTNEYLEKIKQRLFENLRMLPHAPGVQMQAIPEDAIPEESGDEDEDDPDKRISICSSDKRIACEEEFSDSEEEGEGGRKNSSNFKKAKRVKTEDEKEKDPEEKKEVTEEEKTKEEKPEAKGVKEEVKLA
T4 sequence (P56524 whole entry): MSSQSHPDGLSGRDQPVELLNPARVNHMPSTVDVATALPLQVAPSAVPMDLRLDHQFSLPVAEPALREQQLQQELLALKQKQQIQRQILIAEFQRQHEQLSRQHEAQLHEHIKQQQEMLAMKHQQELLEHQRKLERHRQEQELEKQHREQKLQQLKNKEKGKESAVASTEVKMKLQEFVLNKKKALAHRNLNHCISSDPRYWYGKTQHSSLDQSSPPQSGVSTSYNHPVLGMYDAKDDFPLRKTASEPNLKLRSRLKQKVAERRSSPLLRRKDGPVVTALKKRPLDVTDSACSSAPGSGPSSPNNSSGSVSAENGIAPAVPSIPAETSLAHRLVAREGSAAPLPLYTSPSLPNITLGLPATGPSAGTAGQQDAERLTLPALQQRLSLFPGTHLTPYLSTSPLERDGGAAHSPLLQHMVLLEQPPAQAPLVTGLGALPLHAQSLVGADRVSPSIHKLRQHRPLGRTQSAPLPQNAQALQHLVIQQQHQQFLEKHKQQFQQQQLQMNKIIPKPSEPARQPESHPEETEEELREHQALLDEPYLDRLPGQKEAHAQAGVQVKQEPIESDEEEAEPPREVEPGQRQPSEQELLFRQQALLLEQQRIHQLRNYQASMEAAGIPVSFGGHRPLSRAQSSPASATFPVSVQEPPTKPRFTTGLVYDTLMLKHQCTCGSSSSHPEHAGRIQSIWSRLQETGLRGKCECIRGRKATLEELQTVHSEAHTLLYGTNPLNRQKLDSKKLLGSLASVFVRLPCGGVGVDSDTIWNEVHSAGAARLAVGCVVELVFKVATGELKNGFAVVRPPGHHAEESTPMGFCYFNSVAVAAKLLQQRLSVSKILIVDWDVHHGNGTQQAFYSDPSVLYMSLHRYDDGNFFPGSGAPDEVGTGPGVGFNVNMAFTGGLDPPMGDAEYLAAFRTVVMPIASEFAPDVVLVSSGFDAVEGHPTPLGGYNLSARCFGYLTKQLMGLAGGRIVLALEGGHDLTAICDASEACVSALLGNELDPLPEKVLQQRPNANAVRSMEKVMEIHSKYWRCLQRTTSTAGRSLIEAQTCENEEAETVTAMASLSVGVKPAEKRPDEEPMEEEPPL

B1: in experiment [1], the binding result was “no binding”.
As for B2, in the experiment with GST-LCoR, the binding result is “no binding”.
Consider B3, for which the binding result with GST-TIF2.1 was “no binding”.
Take B4: the binding result with GST-LCoR is “no binding”.
On to B5, for which, in the experiment with ERα-EYFP fusion protein, the “fold reduction of hormone-independent interaction against wild-type LCoR” value is roughly 2 fold.
Consider B6, for which the binding result with HDAC1 and with HDAC4 was “no binding” throughout.
Take B7: the binding result in the experiment with HDAC1 and with HDAC4 was “no binding” throughout.
